We go through one substance from patent publication US20020111309A1.

A word on the Kd: it is the equilibrium constant for the complex coming apart.

In assay [1] the target is Aβ (1-40), beta-amyloid protein of Alzheimer's disease (UniProt P05067). The experiment in a line: cell-based or functional assay.
The target is the same in assay [2]. The experiment in a line: solid phase binding immunoassay, Aβ (1-40) on microtiter wells, laminin in solution, anti-laminin detection, one-site fit.

Chain of Aβ (1-40), beta-amyloid protein of Alzheimer's disease (P05067 672-711 limits assumed): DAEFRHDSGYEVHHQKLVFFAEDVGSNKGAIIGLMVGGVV

In assay [1], “Engelbreth-Holm-Swarm (EHS) mouse tumor laminin, P02468 34-1607” came in with a Thioflavin T fluorescence (Aβ (1-40) amyloid fibril formation), 25 µM Aβ with 100 nM laminin, 1 week of 27.1 fold lower; a Thioflavin T fluorescence (Aβ (1-40) amyloid fibril formation), 25 µM Aβ with 100 nM laminin, 1 hour of 2.9 fold lower; a Thioflavin T fluorescence (Aβ (1-40) amyloid fibril formation), 25 µM Aβ with 100 nM laminin, 1 day of 4.6 fold lower; a Thioflavin T fluorescence (Aβ (1-40) amyloid fibril formation), 25 µM Aβ with 100 nM laminin, 3 days of 30.6 fold lower. In assay [1], this substance returned a Thioflavin T fluorescence (Aβ fibrillogenesis), second study, 25 µM Aβ with 100 nM laminin, 1 week (fold decrease) of 21; a Thioflavin T fluorescence (Aβ fibrillogenesis), second study, 25 µM Aβ with 100 nM laminin, 1 day (fold decrease) of 9; a Thioflavin T fluorescence (Aβ fibrillogenesis), second study, 25 µM Aβ with 100 nM laminin, 3 days (fold decrease) of 9; a dissolution of pre-formed Aβ amyloid fibrils (Thioflavin T fluorometry, 4 days), 16 nM laminin of 25%. For the same substance, in assay [1], the dissolution of pre-formed Aβ amyloid fibrils (Thioflavin T fluorometry, 4 days), 31 nM laminin is 28%; the dissolution of pre-formed Aβ amyloid fibrils (Thioflavin T fluorometry, 4 days), 63 nM laminin turned out to be 39%; the dissolution of pre-formed Aβ amyloid fibrils (Thioflavin T fluorometry, 4 days), 125 nM laminin was found to be 41%. Further, the equilibrium dissociation constant (Kd) in assay [2] came out at 2.7 nM.
